Source: patent US20230158117A1, “COMPOSITION FOR PREVENTION OR TREATMENT OF […] COMPRISING TRIGONAL GLUCAGON/GLP-1/GIP RECEPTOR AGONIST OR CONJUGATE THEREOF AND METHOD USING THE SAME” (HANMI PHARM. CO., LTD., priority 2020, published 2023)
Bridges are numbered along the chain shown (N, C = ends). Where no end group is shown, it is not given here. [ ]: non-standard residue; d: D form. Aib = CC(C)(N)C(=O)O

Assays:
human GIP receptor = molecular target: T1, human GIP receptor (Homo sapiens, UniProt P48546); test: In vitro activity (cAMP accumulation, LANCE cAMP kit) in CHO cells expressing human GIP receptor; format: cell-based; conditions: long-acting conjugate, relative potency from cAMP EC50 compared to human GIP
T1 construct: expressed in transfected cells; host or cells: Chinese hamster ovary (CHO)
T1 sequence (P48546 22-466): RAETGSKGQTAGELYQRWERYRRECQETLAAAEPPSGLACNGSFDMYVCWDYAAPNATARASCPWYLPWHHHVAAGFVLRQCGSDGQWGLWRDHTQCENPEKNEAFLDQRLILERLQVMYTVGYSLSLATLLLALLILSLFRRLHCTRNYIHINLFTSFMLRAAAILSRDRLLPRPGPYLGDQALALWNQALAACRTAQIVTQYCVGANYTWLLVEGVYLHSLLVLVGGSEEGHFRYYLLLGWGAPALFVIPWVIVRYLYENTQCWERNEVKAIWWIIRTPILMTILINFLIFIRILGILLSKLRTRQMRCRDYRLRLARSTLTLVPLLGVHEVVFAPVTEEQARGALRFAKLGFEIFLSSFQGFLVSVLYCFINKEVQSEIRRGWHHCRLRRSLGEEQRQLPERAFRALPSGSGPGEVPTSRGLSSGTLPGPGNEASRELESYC
Protocol: (§1) Activities of the triple agonists and the long-acting conjugates thereof respectively prepared in Examples 1 and 2 were measured using transformed cell lines in which a GLP-1 receptor, a glucagon (GCG) receptor, and a GIP receptor were transformed by way of a method of measuring in vitro cellular activities.
(§2) The cell lines were transformed such that genes for the human GLP-1 receptor, the human GCG receptor, and the human GIP receptor were each expressed in Chinese hamster ovary (CHO), and were suitable for measuring activities of GLP-1, GCG, and GIP, respectively. Therefore, the activity for each part was measured using each of the transformed cell lines.
(§3) For measurement of the activity of the triple agonists and the long-acting conjugates thereof respectively prepared in Examples 1 and 2 to GIP, human GIP was subjected to a 4-fold serial dilution from 50 nM to 0.000048 nM, and the triple agonists and the long-acting conjugates thereof respectively prepared in Examples 1 and 2 were subjected to a 4-fold serial dilution from 400 nM to 0.00038 nM. A cultured solution was removed from the cultured CHO cells in which the human GIP receptor was expressed, and each of the serially diluted substances was added to the CHO cells in an amount of 5 μL. Then, a buffer solution including cAMP antibody was added thereto in an amount of 5 μL and cultured at room temperature for 15 minutes. Thereafter, a detection mix including a cell lysis buffer was added thereto in an amount of 10 μL for lysis of the cells, followed by reaction at room temperature for 90 minutes. Upon completion of the reaction, the cell lysates were applied to a LANCE cAMP kit (PerkinElmer, USA) to calculate EC50 values via accumulated cAMP, and the values were compared with each other.

human GCG receptor = molecular target: T2, human GCG receptor (Homo sapiens, UniProt P47871); test: In vitro activity (cAMP accumulation, LANCE cAMP kit) in CHO cells expressing human GCG receptor; format: cell-based; conditions: long-acting conjugate, relative potency from cAMP EC50 compared to human GCG
T2 construct: expressed in transfected cells; host or cells: Chinese hamster ovary (CHO)
Protocol: as §1, §2
as §3, with “GCG,” for “GIP,”, “GCG” for “GIP”

human GLP-1 receptor = human GLP-1 receptor (Homo sapiens, UniProt P43220); test: In vitro activity (cAMP accumulation, LANCE cAMP kit) in CHO cells expressing human GLP-1 receptor; format: cell-based; parameters: expressed in transfected cells; host or cells: Chinese hamster ovary (CHO); conditions: long-acting conjugate, relative potency from cAMP EC50 compared to human GLP-1
Chain of human GLP-1 receptor (P43220 24-463): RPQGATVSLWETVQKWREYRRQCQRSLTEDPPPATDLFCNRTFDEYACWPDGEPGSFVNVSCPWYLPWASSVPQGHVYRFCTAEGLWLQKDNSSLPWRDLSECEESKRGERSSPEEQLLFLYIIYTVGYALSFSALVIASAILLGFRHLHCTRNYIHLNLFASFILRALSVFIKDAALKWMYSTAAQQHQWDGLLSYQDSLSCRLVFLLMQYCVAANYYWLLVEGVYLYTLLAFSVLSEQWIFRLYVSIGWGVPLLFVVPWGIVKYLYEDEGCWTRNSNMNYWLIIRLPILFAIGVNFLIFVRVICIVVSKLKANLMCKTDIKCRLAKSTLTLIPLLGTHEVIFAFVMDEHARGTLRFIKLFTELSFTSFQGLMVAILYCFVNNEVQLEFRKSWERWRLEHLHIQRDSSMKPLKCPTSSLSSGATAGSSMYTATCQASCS
Protocol: as §1, §2
as §3, with “activity of each” for “activity”, “GLP-1,” for “GIP,”, “GLP-1” for “GIP”

hyperlipidemia hamsters = test: Therapeutic effect on hyperlipidemia in fructose-fed hyperlipidemia hamsters; format: in vivo, Golden Syrian hamsters; conditions: 219.2 nmol/kg, QW; comparative example; FIG. 1
Excerpt: Golden Syrian hamsters (hereinafter referred to as hyperlipidemia hamsters) were fed with fructose for 2 weeks to induce a hyperlipidemia model. Among the triple agonists prepared in Example 1, SEQ ID NO: 42 (1.6 nmol/kg, 3.1 nmol/kg, Q2D) was selected, and the long-acting conjugate of the triple agonist having SEQ ID NO: 42 was repeatedly administered to the hamsters induced with hyperlipidemia for 3 weeks by subcutaneous administration. As a comparative example, therapeutic effects of evolocumab (219.2 nmol/kg, QW), as a conventional therapeutic agent, on hyperlipidemia were measured.

Molecule | In vitro activity relative to native peptide (%) vs. GIP (human GIP receptor) [%] | In vitro activity relative to native peptide (%) vs. Glucagon (human GCG receptor) [%] | In vitro activity relative to native peptide (%) vs. GLP-1 (human GLP-1 receptor) [%] | effects on total blood cholesterol level and blood LDL level (hyperlipidemia hamsters)
21 (Y[Aib]QGTFTSDYSKYLDECRAKEFVQWLLDHHPSSGQPPPS; bridge 16-20) [compound 21] | 0.2 | 1.6 | 0.1 | –
42 (Y[Aib]QGTFTSDYSKYLDEKRAKEFVQWLLDHHPSSGQPPPSC; bridge 16-20) [compound 42] | 1.2 | 23.1 | 3.1 | –
77 (Y[Aib]QGTFTSDYSKYLDEKAAKDFVQWLLDHHPSSGQPPPSC; bridge 16-20) [compound 77] | 6.6 | 1.7 | 6.7 | –
96 (Y[Aib]QGTFTSDYSKYLDEKRAKEFVQWLLDHCPSSGQPPPS; bridge 16-20) [compound 96] | 0.3 | 4.0 | 0.3 | –
22 (Y[Aib]QGTFTSDYSKCLDEKRAKEFVQWLLDHHPSSGQPPPS; bridge 16-20) [compound 22] | 0.5 | 0.9 | 0.1 | –
50 (H[Aib]QGTFTSDYSKYLDEKRAKEFVQWLLDHHPSSGQPPPSC; bridge 16-20) [compound 50] | 0.7 | 6.9 | 15.4 | –
43 (Y[Aib]QGTFTSDYSKYLDEKRAKEFVQWLLDHHCSSGQPPPS; bridge 16-20) [compound 43] | 0.6 | 13.5 | 2.1 | –
evolocumab (antibody, chains of the INN, looked up, V domains shown, conventional therapeutic agent for hyperlipidemia) VH: EVQLVQSGAEVKKPGASVKVSCKASGYTLTSYGISWVRQAPGQGLEWMGWVSFYNGNTNYAQKLQGRGTMTTDPSTSTAYMELRSLRSDDTAVYYCARGYGMDVWGQGTTVTVSS VL: ESALTQPASVSGSPGQSITISCTGTSSDVGGYNSVSWYQQHPGKAPKLMIYEVSNRPSGVSNRFSGSKSGNTASLTISGLQAEDEADYYCNSYTSTSMVFGGGTKLTVL | – | – | – | negligible effects
